Measured values: US20150218255A1 (US Dept. of Health and Human Services, published 2015)

Experiments:
[1] = molecular target: T1, DENV envelope domain III, serotype 2 (antigen of the Biacore assays) (Dengue virus serotype 2 (consensus …, UniProt P14337 571-674)); assay: SPR (Biacore X100), scFv m366 immobilised on CM5, antigen injected, 1:1 Langmuir fit
T1 construct: also called DIII serotype 2; DIII.2

[2] = molecular target: T2, DENV envelope domain III, serotype 1 (antigen of the Biacore assays) (Dengue virus serotype 1 (consensus …, UniProt P17763 571-674)); assay: as above
T2 construct: also called DIII serotype 1; DIII.1
T2 chain: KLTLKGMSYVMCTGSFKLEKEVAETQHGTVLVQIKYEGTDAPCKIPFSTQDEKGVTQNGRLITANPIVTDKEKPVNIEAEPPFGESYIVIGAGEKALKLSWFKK

[3] = molecular target: T3, DENV envelope domain III, serotype 4 (antigen of the Biacore assays) (Dengue virus serotype 4 (consensus …, UniProt P09866 570-673)); assay: as above
T3 construct: also called DIII serotype 4; DIII.4
T3 sequence (P09866 570-673 limits assumed): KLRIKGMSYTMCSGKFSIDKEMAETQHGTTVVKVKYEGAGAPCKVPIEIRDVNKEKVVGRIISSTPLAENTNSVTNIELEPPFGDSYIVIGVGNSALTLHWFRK

[4] = molecular target: T4, DENV envelope domain III, serotype 3 (antigen of the Biacore assays) (Dengue virus serotype 3 (consensus …, UniProt Q5UB51 569-672)); assay: as above
T4 construct: also called DIII serotype 3; DIII.3
T4 sequence (Q5UB51 569-672 limits assumed): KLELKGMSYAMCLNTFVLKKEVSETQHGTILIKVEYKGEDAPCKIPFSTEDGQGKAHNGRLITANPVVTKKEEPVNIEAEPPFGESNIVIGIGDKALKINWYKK

[5] = molecular target: T1, DENV envelope domain III, serotype 2 …; assay: SPR (Biacore)
[6] = molecular target: T2, DENV envelope domain III, serotype 1 …; assay: SPR (Biacore)
[7] = molecular target: T3, DENV envelope domain III, serotype 4 …; assay: SPR (Biacore)
[8] = molecular target: T4, DENV envelope domain III, serotype 3 …; assay: SPR (Biacore)
[9] = molecular target: T1, DENV envelope domain III, serotype 2 …; assay: SPR (Biacore); remark: listed apart in the source
[10] = molecular target: T2, DENV envelope domain III, serotype 1 …; assay: SPR (Biacore)
[11] = molecular target: T3, DENV envelope domain III, serotype 4 …; assay: SPR (Biacore); remark: listed apart in the source
[12] = molecular target: T4, DENV envelope domain III, serotype 3 …; assay: SPR (Biacore); remark: listed apart in the source

T1 sequence (P14337 571-674 limits assumed): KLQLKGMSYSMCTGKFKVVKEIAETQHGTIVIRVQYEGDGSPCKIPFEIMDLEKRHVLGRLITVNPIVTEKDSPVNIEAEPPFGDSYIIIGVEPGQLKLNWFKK

B1: human anti-dengue virus antibody scFv m366 (scFv)
scFv: QLQLQESGGGLVQPGGSLRLSCAASGFTFSSYSMNWVRQAPGKRLEWVSSISGSSSYIYYADSVKGRFTISRDNAKNSLYLQMDSLRAEDTAVYYCARYAAGIWTFDIWGQGTTVTVSSGGGGSGGGASGGGGSSYELTQPPSVSVAPGKTASISCGGDNIGRKSVHWFQQKPGQAPVLVLYDDSDRPSGIPARFSGSNSGNTATLTISRVEAGDEADYYCQVWARSSDHPNWVFGGGTKLTVLG
notes: also called antibody m366
B1 gave a Kd [1] of 2.51 nM, a Kd [2] of 6.14 nM and a Kd [3] of 12.4 nM. It also gave a Kd [4] of 1.09 nM, a koff [4] of 0.000204 s⁻¹ and a kon [4] of 186000 M⁻¹ s⁻¹.

B2: human anti-dengue virus antibody scFv m366.6 (scFv)
scFv: QLQLQESGGGLVQPGGSLRLSCAASGFTFSSHSMNWIRQAPGKRLEWVSSISSSSSYIYYADSVRGRFTISRDNAKNSLYLQMDSLRAEDTAVYYCARYMAGIWTFDIWGQGTMVTVSSGGGGSGGGASGGGGSSYELTQPPSVSVAPGKTASISCGGDNIGRKSVHWFQQKPGQAPVLVLYDDSDRPSGIPARFSGSNSGNTATLTISGVEAGDEADYYCQVWARSSDLPNWVFGGGTKLTVLG
notes: also called antibody m366.6
B2 showed a Kd [5] of 0.29 nM, a Kd [6] of 0.44 nM and a Kd [7] of 0.75 nM. The Kd [8] was 0.27 nM.

B3: human anti-dengue virus antibody scFv m360 (scFv)
scFv: QVTLKESGPTLVKRTQTLTLTCTFFGFSLSTSGMRVSWIRQPPGKALEWIARIDWDDDKFYSISLKSRLTISKDTSKNQVVLTMTNMDPVDTATYYCARTPYNWNDGPRGAFDIWGQGTMVTVSSEGGGSGGGASSGGGSQSVLTQPPSVSAAPGQKVTIPCSGSYSNIRNNYVSWYQQLPGTAPKLLIYDDNKRPSGIPDRFSGSKSGTLATLVITGLQSGDEADYYCGTWDSSLSGVVFGGGTKLTVLG
notes: also called antibody m360
For B3, the Kd [9] was 5.13 nM, the Kd [10] was 5.84 nM and the Kd [11] was 82.8 nM. The Kd [12] was 0.116 nM.

B4: human anti-dengue virus antibody scFv m360.6 (scFv)
scFv: KVTLKESGPTLVKPRQTLTLTCTFSGFSLSTSGMRVSWVRQPPGKALEWIARIDWDDDKFYSTSLKTRLTISKDTFKNQVVLTMTNMDPVDTAMYYCVRTPYNWNDGPRGALDIWGQGTMVTVSSGGDRSDGGASGGGGSQSMLTQSPSVSAAPGQNVTISCSGDYPNIRNNYVSWYQQLPGAAPKLLIYDNNKRPSGIPDRFSGSKSGTSATLDITGLQTGDEADYYCGAWDSRLSAVVFGGGTKLTVLG
notes: also called antibody m360.6
B4 gave a Kd [5] of 0.24 nM, a Kd [6] of 0.31 nM and a Kd [7] of 33 nM. For the same binder, the Kd [8] was 0.0023 nM.
